In patent US7989587B2, “SSX-2 peptides presented by HLA class II molecules” (Ludwig Institute for Cancer Research Ltd., priority 1999, dated 2011):

Experiments:
Assay type in all cases: cell-based, human
T cells = experiment: BrdU proliferation assay of T cells with peptide or protein loaded autologous dendritic cells
Procedure: The peptides were then combined with autologous dendritic cells. These were obtained by isolating peripheral blood mononuclear cells (“PBMCs”), from HLA-DR+donors, using Ficoll-Hypaque methods. These PBMCs were then incubated for 1-2 hours at 37° C., on plastic surfaces. Adherent monocytes were then cultured for 5 days in medium that had been supplemented with interleukin-4 (IL-4) and GM-CSF. To elaborate, AIMV medium supplemented with 1000 U/ml of IL-4, and 1000 U/ml of GM-CSF was used. This incubation stimulates differentiation into dendritic cells.
Samples of dendritic cells (8×10^5) were then loaded with 50 μg/ml of […] added peptide. The loading proceeded for 2 hours, at 37° C., in medium supplemented with 1000 U/ml of TNF-α and 10,000 U/ml of IL-1β. Peptide pulsed dendritic cells were then washed twice, in excess peptide free medium. Then, autologous peripheral blood lymphocytes (4×10^7) were combined with 8×10^5 peptide loaded dendritic cells (ratio of 50:1), in medium which contained 5 ng/ml of IL-7 and 20 U/ml of IL-2. Incubation was carried out at 37° C.
Cultures were restimulated weekly with peptide loaded, irradiated PBMCs.
The ability of the peptides to form complexes with HLA-DR molecules and to stimulate CD4^+ cell proliferation was determined by measuring BrdU uptake.
The specificity of the resulting CD4^+ cells was then tested by combing them with autologous dendritic cells that had been loaded with peptide, admixed with full length recombinant SSX-2 protein, or with an unrelated protein.
The results presented in Example 4 led to additional experiments using T cells that had been isolated from two donors using standard protocols. In these experiments, autologous dendritic cells were prepared, as described, and combined with T cells whose proliferation was determined in a BrdU assay. […] The SSX-2 full length molecule provoked just slightly less than 60% proliferation, while the peptide mixture provoked about 85% proliferation.

[1] = system: SSX-2 37-51 specific DR3 restricted CD4+ T cells; experiment: Recognition of recombinant protein loaded EBV cells, IFN-γ ELISA; conditions: FIG. 9C, FIG. 10C
Procedure: For intracellular cytokine secretion detection, T cells were stimulated in the absence or in the presence of peptides at the indicated dose during 4 h as described previously (Ayyoub M, et al., J Clin Invest., 2004; 113 (8): 1225-33, see examples above). One hour after the beginning of the incubation, Brefeldin A ([…], Sigma) was added to inhibit cytokine secretion. After incubation, cells were stained with anti-CD4 mAb (BD Biosciences, San Diego, Calif.) for 20 min at 4° C. and fixed using formaldehyde, permeabilized with saponine (Sigma, 0.1% in PBS 5% FCS), stained with anti IFN-γ mAb (BD Biosciences) and analyzed by flow cytometry. Data analysis was performed using Cell Quest software. IFN-γ secretion was assessed as described (Ayyoub M, et al., J Clin Invest., 2004; 113 (8): 1225-33). T cells (10,000/well) and EBV transformed B cells (EBV) used as antigen-presenting cells (APC, 10,000/well) were incubated in the absence or in the presence of peptides at the indicated dose in 96-well round-bottom plates in […] of medium. In some experiments tumor cells were used as APC. […] After 24 h incubation at 37° C., culture supernants were collected and the content of IFN-g determined by ELISA (BioSource International, Camarillo, Calif., USA). […]

CD4^+ T-cells = experiment: IFN-γ ELISPOT assay of peptide-primed CD4+ T-cells; conditions: T-cells prestimulated with p45-59; autologous and allogeneic DC
Procedure: PBMC from patients were isolated by Ficoll-Paque™ PLUS separation (Amersham Pharmacia Biotech AB, Uppsala, Sweden). For in-vitro priming, 1×10^7 and 2×10^6 unseparated PBMC, respectively, were suspended in 500 μl serum-free medium (X-Vivo 15 (Biowhittaker Europe s.p.r.l., Verviers, Belgium) supplemented with 2 mM L-glutamine (Gibco) and 1% penicillin/streptomycin (Gibco). For pulsing, the pool of the 3 SSX2-derived peptides (each at a concentration of 2 μg/ml) was added to the suspension of 1×10^7 cells, while the suspension of 2×10^6 PBMC was pulsed with the mix of 7 peptides (each at 2 μg/ml) derived from the pp65 antigen of the human CMV. Pulsing was performed for 90-120 minutes at 37° C. Thereafter the pulsed cells were washed once with serum-free medium and suspended for cultivation in X-Vivo 15 T-cell medium (Biowhittaker) supplemented with 10% human AB serum (Biowhittaker) and 6.7 ng/ml IL-7 (R&D systems). The 1×10^7 SSX2-pulsed PBMC were suspended in 3.75 ml T-cell medium and plated into 5 wells (0.75 ml/well) of a 48-well Nuncclone™ plate (Nunc GmbH & Co KG.). The 2×10^6 pp65-pulsed PBMC were plated into 1 well (0.75 ml). The remaining PBMC from the patients or donors, respectively, were divided into at least 3 aliquots of 1×10^7 PBMC and frozen until used for restimulation and in the T-cell assays. The peptide-pulsed PBMC which served both as APC and as a source for the T-cells to be used in the ELISPOT assay, were cultured at 37° C. One day after the stimulation was started, each well was supplemented with 250 μl X-Vivo 15 medium supplemented with 80 U/ml IL-2 (R&D Systems) resulting in a final concentration of 20 U/ml IL-2. The cells were incubated for 6 days under occasional microscopic control. On day 7 and before each ELISPOT assay, respectively, the percentage of CD4^+ T-cells in the culture well was determined. On day 7, cells were restimulated with autologous PBMC that had been pulsed with the appropriate peptides under the same conditions as described for day 0/1 at a CD4^+/APC ratio of 1:1. On day 14, the first ELISPOT assay was performed. To this end, the cultured cells were harvested from the respective wells and the primed CD4^+ cells were used as effectors in the ELISPOT assay. The remaining cells were restimulated once more using conditions as described before. […] no specific reactivity was shown by day 21, the stimulation was repeated weekly until all CD4^+ cells were consumed.
At least three IFN-γ ELISPOT assays were performed on days 14, 21 and 28, respectively. All tests were run in triplicates in order to determine mean values and standard deviations. Assays were performed in nitrocellulose-lined 96-well plates (MAHA S45 by Millipore, Bedford Mass., USA). The wells were pre-coated overnight with PBS (50 μl/well) containing an anti-IFN-γ capture antibody at the dilution recommended in the supplier's instructions (Mabtech AB, Nacka, Sweden). To block unspecific binding, the wells were then incubated with 10% human AB^+ serum for 1 h at 37° C. For the priming of effector cells, 2.5×10^4 CD4^+ T-cell were harvested, washed once to remove the cytokines, and were tested for specific recognition of the corresponding antigen. To this end, peptide-primed CD4^+ cells were harvested, washed once to remove cytokines, resuspended, and 50 μl of the cell suspension in X-Vivo 15 medium were added to each well. […]

B1: SSX-2 full length molecule: full length recombinant SSX-2 protein (protein, UniProt Q16385 1-188, looked up)
chain: MNGDDAFARRPTVGAQIPEKIQKAFDDIAKYFSKEEWEKMKASEKIFYVYMKRKYEAMTKLGFKATLPPFMCNKRAEDFQGNDLDNDPNRGNQVERPQMTFGRLQGISPKIMPKKPAEEGNDSEEVPEASGPQNDGKELCPPGKPTTSEKIHERSGPKRGEHAWTHRLRERKQLVIYEEISDPEEDDE
modifications: full-length
notes: full length recombinant SSX-2 protein
proliferation (T cells; first set of experiments, mixture of the 5 peptides of Example 4 compared to equal amount of protein): less than 60% | T cell proliferation induced by pulsed dendritic cells (T cells; six individual experiments, versus other peptides or TALL): greater T cell proliferation | processing and presentation of recombinant protein by DR3+ EBV cells, recognition by specific CD4+ T cells [1]: efficiently process | T-cell response to dendritic cells pulsed with whole protein (CD4^+ T-cells): induced a significant T-cell response
